Laboratory results: US20140315986, “APTAMERS THAT BIND TO IL-6 AND THEIR USE IN TREATING OR DIAGNOSING IL-6 MEDIATED CONDITIONS” (Otsuka Pharmaceutical Co., Ltd., published 2014)

B1: 2574-49_411 (ssDNA)
DNA: GGGUUAUGUAGCGUGCGUAAGGCGGU
modifications: G-G1-G-Nap1-Nap2-A2-Nap2-G-Nap1-A2-G1-C1-C3-C3-G1-U1-G1-C2-G2-Nap1-A2-A2-G2-G1-C2-G1-G1-Nap1 (1=2'-OMe, 2=PS)
B2: 2574-49_326 (ssDNA)
DNA: GGGUUAUGUAGCGUGCGUAAGGCGGU
modifications: G-G1-G-Nap1-Nap-A-Nap-G-Nap1-A-G-C-C3-C3-G-U1-G1-C-G-Nap1-A-A-G-G-C-G1-G1-Nap1 (1=2'-OMe)
B3: 2573-20_780 (ssDNA)
DNA: GGCAGGUUUGGUAUUAACACGUUAAGUCGUGG
modifications: G-G-C1-A-G-G1-Bn-Bn-Pe2-G-G-Nap-A-Bn-Bn-A1-A-C-A1-C1-G-Bn-Bn2-A-A-G-Bn-C1-G-Bn2-G-G (1=2'-OMe, 2=PS)
B4: 2574-49_338 (ssDNA)
DNA: GGGUUAUGUAGCGUGCGUAAGGCGGU
modifications: G-G1-G-Nap1-Nap2-A-Nap-G-Nap1-A-G-C-C3-C3-G1-U1-G1-C-G-Nap1-A-A-G-G-C-G1-G1-Nap1 (1=2'-OMe, 2=PS)

Molecular target: IL-6 (mature human interleukin-6) (Homo sapiens, UniProt P05231 SEQ:1-184)
Sequence (P05231 29-212): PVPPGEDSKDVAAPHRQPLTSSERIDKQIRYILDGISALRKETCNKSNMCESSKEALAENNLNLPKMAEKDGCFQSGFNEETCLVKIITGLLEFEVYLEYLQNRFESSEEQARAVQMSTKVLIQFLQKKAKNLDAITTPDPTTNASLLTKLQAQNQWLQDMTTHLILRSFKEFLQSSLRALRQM
Assay: cell_activity
Conditions: tags: untagged, R&D Systems; biotinylated with NHS-PEO4-biotin for SELEX

| Binder | IC50 [nM] |
| --- | --- |
| B1 | 5.8 |
| B2 | 0.11 |
| B3 | 0.087 |
| B4 | 0.02 |
